Results as given in IntAct's records for PubMed 31515488.

B1: Meiotic recombination protein DMC1/LIM15 homolog (Homo sapiens), Q14565 (parent)
chain: MKEDQVVAEEPGFQDEEESLFQDIDLLQKHGINVADIKKLKSVGICTIKGIQMTTRRALCNVKGLSEAKVDKIKEAANKLIEPGFLTAFEYSEKRKMVFHITTGSQEFDKLLGGGIESMAITEAFGEFRTGKTQLSHTLCVTAQLPGAGGYPGGKIIFIDTENTFRPDRLRDIADRFNVDHDAVLDNVLYARAYTSEHQMELLDYVAAKFHEEAGIFKLLIIDSIMALFRVDFSGRGELAERQQKLAQMLSRLQKISEEYNVAVFVTNQMTADPGATMTFQADPKKPIGGHILAHASTTRISLRKGRGELRIAKIYDSPEMPENEATFAITAGGIGDAKE
B2: Embryonal Fyn-associated substrate (Homo sapiens), O43281 (parent)
chain: MAIATSTQLARALYDNTAESPQELSFRRGDVLRVLQREGAGGLDGWCLCSLHGQQGIVPANRVKLLPAGPAPKPSLSPASPAQPGSPYPAPDHSNEDQEVYVVPPPARPCPTSGPPAGPCPPSPDLIYKIPRASGTQLAAPRDALEVYDVPPTALRVPSSGPYDCPASFSHPLTRVAPQPPGEDDAPYDVPLTPKPPAELEPDLEWEGGREPGPPIYAAPSNLKRASALLNLYEAPEELLADGEGGGTDEGIYDVPLLGPEAPPSPEPPGALASHDQDTLAQLLARSPPPPHRPRLPSAESLSRRPLPALPVPEAPSPSPVPSPAPGRKGSIQDRPLPPPPPRLPGYGGPKVEGDPEGREMEDDPAGHHNEYEGIPMAEEYDYVHLKGMDKAQGSRPPDQACTGDPELPERGMPAPQEALSPGEPLVVSTGDLQLLYFYAGQCQSHYSALQAAVAALMSSTQANQPPRLFVPHSKRVVVAAHRLVFVGDTLGRLAASAPLRAQVRAAGTALGQALRATVLAVKGAALGYPSSPAIQEMVQCVTELAGQALQFTTLLTSLAP
partner: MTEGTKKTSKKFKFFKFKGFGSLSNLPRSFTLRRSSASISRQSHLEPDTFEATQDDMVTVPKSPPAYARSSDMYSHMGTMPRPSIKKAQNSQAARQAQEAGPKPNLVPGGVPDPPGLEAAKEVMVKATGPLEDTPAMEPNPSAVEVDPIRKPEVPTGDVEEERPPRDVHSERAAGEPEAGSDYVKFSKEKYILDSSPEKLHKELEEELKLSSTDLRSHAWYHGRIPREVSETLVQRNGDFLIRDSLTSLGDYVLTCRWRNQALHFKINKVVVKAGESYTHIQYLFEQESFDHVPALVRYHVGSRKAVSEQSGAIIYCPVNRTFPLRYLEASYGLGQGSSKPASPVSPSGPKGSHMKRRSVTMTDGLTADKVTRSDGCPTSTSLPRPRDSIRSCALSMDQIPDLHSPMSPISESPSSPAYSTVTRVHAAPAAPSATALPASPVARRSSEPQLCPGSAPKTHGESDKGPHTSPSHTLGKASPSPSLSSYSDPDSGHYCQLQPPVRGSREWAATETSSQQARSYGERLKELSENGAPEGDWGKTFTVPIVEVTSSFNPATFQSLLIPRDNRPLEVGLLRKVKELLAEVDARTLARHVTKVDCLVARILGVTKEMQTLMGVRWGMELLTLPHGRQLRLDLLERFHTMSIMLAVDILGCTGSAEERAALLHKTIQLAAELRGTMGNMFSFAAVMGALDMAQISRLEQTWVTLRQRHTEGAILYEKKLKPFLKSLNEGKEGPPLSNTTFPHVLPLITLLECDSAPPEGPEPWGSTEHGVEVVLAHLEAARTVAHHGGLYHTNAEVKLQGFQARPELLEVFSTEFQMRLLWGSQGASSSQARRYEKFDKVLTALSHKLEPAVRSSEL
B3: "tRNA (guanine-N(7)-)-methyltransferase non-catalytic subunit WDR4" (Homo sapiens), P57081 (parent)
chain: MAGSVGLALCGQTLVVRGGSRFLATSIASSDDDSLFIYDCSAAEKKSQENKGEDAPLDQGSGAILASTFSKSGSYFALTDDSKRLILFRTKPWQCLSVRTVARRCTALTFIASEEKVLVADKSGDVYSFSVLEPHGCGRLELGHLSMLLDVAVSPDDRFILTADRDEKIRVSWAAAPHSIESFCLGHTEFVSRISVVPTQPGLLLSSSGDGTLRLWEYRSGRQLHCCHLASLQELVDPQAPQKFAASRIAFWCQENCVALLCDGTPVVYIFQLDARRQQLVYRQQLAFQHQVWDVAFEETQGLWVLQDCQEAPLVLYRPVGDQWQSVPESTVLKKVSGVLRGNWAMLEGSAGADASFSSLYKATFDNVTSYLKKKEERLQQQLEKKQRRRSPPPGPDGHAKKMRPGEATLSC
partner: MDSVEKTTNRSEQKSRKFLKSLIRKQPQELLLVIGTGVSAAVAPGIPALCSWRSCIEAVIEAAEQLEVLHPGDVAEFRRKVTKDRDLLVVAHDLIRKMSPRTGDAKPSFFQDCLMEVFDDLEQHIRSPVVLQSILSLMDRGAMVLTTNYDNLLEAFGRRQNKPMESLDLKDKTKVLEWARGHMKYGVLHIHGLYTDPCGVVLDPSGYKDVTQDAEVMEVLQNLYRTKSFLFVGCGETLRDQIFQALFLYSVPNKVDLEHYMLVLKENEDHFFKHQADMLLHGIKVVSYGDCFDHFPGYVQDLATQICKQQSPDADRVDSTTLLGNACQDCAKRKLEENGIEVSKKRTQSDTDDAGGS
B4: E3 ubiquitin-protein ligase RNF8 (Homo sapiens), O76064 (parent)
chain: MGEPGFFVTGDRAGGRSWCLRRVGMSAGWLLLEDGCEVTVGRGFGVTYQLVSKICPLMISRNHCVLKQNPEGQWTIMDNKSLNGVWLNRARLEPLRVYSIHQGDYIQLGVPLENKENAEYEYEVTEEDWETIYPCLSPKNDQMIEKNKELRTKRKFSLDELAGPGAEGPSNLKSKINKVSCESGQPVKSQGKGEVASTPSDNLDPKLTALEPSKTTGAPIYPGFPKVTEVHHEQKASNSSASQRSLQMFKVTMSRILRLKIQMQEKHEAVMNVKKQTQKGNSKKVVQMEQELQDLQSQLCAEQAQQQARVEQLEKTFQEEEQHLQGLEIAQGEKDLKQQLAQALQEHWALMEELNRSKKDFEAIIQAKNKELEQTKEEKEKMQAQKEEVLSHMNDVLENELQCIICSEYFIEAVTLNCAHSFCSYCINEWMKRKIECPICRKDIKSKTYSLVLDNCINKMVNNLSSEVKERRIVLIRERKAKRLF
partner: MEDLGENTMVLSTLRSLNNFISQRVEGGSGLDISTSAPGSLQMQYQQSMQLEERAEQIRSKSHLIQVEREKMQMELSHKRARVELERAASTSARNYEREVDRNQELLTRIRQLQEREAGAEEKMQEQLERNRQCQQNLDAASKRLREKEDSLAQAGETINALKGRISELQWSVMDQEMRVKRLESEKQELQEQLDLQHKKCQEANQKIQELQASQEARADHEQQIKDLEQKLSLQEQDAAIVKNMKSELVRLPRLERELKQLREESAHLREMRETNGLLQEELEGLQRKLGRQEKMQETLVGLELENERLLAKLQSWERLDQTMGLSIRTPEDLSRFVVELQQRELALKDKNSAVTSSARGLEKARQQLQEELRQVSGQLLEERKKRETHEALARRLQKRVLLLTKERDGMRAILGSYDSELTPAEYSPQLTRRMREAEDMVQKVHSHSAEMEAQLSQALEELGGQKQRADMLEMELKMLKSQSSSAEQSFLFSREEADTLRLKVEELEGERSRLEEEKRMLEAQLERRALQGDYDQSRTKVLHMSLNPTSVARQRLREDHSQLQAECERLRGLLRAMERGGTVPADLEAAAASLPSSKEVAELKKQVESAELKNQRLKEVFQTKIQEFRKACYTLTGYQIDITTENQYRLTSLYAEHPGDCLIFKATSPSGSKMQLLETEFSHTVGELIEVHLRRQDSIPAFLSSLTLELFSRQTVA
B5: Inhibitor of nuclear factor kappa-B kinase-interacting protein (Homo sapiens), Q70UQ0-4 (parent)
chain: MSEVKSRKKSGPKGAPAAEPGKRSEGGKTPVARSSGGGGWADPRTCLSLLSLGTCLGLAWFVFQQSEKFAKVENQYQLLKLETNEFQQLQSKISLISEKLESTESILQEATSSMSLMTQFEQEVSNLQDIMHDIQNNEEVLTQRMQSLNEKFQNITDFWKRSLEEMNINTDIFKSEAKHIHSQVTVQINSAEQEIKLLTERLKDLEDSTLRNIRTVKRQEEEDLLRVEEQLGSDTKAIEKLEEEQHALFARDEDLTNKLSDYEPKVEECKTHLPTIESAIHSVLRVSQDLIETEKKMEDLTMQMFNMEDDMLKAVSEIMEMQKTLEGIQYDNSILKMQNELDILKEKVHDFIAYSSTGEKGTLKEYNIENKGIGGDF
partner: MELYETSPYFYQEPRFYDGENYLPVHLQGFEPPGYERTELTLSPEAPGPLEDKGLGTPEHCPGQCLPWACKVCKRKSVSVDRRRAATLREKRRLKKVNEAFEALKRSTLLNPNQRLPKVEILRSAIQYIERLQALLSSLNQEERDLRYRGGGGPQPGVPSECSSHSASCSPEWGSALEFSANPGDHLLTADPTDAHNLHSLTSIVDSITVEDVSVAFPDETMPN

Variants of: B1
Details: with gors2_human GORASP2, Q9H8Y8

Variant	effect of a mutation on the interaction
I288T	with no effect
M200V	with no effect

Variants of: B1
Details: with sdcb1_human SDCBP

Variant	effect of a mutation on the interaction
I288T	disrupting interaction strength
M200V	disrupting interaction strength

Variants of: B1
Details: with psa3_human PSMA3, P25788
psa3_human PSMA3, P25788, sequence (P25788 whole entry): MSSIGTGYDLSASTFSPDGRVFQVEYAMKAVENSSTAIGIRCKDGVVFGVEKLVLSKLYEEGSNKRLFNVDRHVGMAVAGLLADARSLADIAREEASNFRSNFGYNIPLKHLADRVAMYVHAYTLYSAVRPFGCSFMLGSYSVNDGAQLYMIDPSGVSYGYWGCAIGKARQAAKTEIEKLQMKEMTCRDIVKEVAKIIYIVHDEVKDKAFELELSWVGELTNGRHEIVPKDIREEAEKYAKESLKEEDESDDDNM

Variant	effect of a mutation on the interaction
I288T	disrupting interaction strength
M200V	with no effect

Variants of: B1
Details: with kcd17_human KCTD17, Q8N5Z5
kcd17_human KCTD17, Q8N5Z5, sequence (Q8N5Z5 whole entry): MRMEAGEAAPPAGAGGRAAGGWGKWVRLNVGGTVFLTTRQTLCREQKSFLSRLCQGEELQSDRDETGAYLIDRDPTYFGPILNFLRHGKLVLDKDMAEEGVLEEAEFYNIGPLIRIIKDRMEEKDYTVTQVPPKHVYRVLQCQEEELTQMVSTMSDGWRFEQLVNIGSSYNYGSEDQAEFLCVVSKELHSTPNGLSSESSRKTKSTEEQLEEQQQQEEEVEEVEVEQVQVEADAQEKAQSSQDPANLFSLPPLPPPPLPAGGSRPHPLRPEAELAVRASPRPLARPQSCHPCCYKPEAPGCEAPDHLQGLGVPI

Variant	effect of a mutation on the interaction
M200V	disrupting interaction strength

Variants of: B2
Details: with sh2d3_human SH2D3C

Variant	effect of a mutation on the interaction
A140D	with no effect
S265F	with no effect

Variants of: B3
Details: with FAM118A

Variant	effect of a mutation on the interaction
A275T	with no effect

Variants of: B4
Details: with md1l1_human MAD1L1, Q9Y6D9

Variant	effect of a mutation on the interaction
V310L	with no effect

Variants of: B5
Details: with myog_human MYOG

Variant	effect of a mutation on the interaction
D157Y	disrupting interaction strength
V186G	with no effect
